According to patent publication US20240352155A1 (CHIMAGEN BIOSCIENCES, published 2024):
Where two headings read alike, the source gives them in different places.

T1: human CD19 antigen (human, UniProt P15391 20-291)
T1 sequence (looked up): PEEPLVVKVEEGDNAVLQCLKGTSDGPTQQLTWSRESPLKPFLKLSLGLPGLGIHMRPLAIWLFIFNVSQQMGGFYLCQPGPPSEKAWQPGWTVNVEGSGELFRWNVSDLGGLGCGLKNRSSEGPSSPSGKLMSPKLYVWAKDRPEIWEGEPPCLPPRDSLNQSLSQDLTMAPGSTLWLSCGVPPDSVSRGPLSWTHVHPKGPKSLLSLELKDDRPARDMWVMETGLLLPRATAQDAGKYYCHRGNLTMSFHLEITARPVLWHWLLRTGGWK

T2: CD20 (stably transfected into K562 cells) (UniProt P11836 1-297, limits assumed)
T2 sequence (looked up): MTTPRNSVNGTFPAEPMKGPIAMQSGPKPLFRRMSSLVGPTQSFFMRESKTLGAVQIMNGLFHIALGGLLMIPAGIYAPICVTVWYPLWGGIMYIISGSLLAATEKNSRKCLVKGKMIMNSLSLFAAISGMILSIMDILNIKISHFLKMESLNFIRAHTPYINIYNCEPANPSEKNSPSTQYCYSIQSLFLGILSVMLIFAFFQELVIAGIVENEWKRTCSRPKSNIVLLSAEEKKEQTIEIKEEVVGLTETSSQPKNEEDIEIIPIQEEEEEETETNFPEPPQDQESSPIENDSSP


Columns and labels:
human CD3ε antigen [1] = molecular target: T3, human CD3ε antigen (human, UniProt P07766 23-126); assay: BIAcore (SPR), antigen immobilized on chip, antibody injected at 5 concentrations
T3 construct: Immobilized on the BIAcore chip; The construct (tag, limits) is not described

human CD19 antigen [2] = molecular target: T1, human CD19 antigen; assay: BIAcore (SPR), CD19 captured on anti-His chip, antibody injected at 5 concentrations
[3] = molecular target: T2, CD20 (stably transfected into K562 …); assay: cell-based or functional assay
human CD19 antigen [4] = molecular target: T1, human CD19 antigen; assay: BIAcore (SPR), CD19 captured on anti-His chip, antibody injected at 5 concentrations; remark: listed apart in the source
human CD3ε antigen [5] = molecular target: T3, human CD3ε antigen; assay: BIAcore (SPR), antigen immobilized on chip, antibody injected at 5 concentrations; remark: listed apart in the source

T3 sequence (P07766 23-126): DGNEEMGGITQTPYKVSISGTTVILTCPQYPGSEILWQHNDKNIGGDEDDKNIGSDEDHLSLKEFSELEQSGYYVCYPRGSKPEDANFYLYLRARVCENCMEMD

| Binder | Kd (human CD3ε antigen [1]) [nM] | koff (human CD3ε antigen [1]) [s⁻¹] | kon (human CD3ε antigen [1]) [M⁻¹ s⁻¹] | Kd (human CD19 antigen [2]) [nM] | koff (human CD19 antigen [2]) [s⁻¹] | kon (human CD19 antigen [2]) [M⁻¹ s⁻¹] | EC50 of killing of K562-CD20 target cells by PBMC effector cells (absorbance at OD490) [3] [nM] | Kd (human CD19 antigen [4]) [nM] | koff (human CD19 antigen [4]) [s⁻¹] | kon (human CD19 antigen [4]) [M⁻¹ s⁻¹] | Kd (human CD3ε antigen [5]) [nM] | koff (human CD3ε antigen [5]) [s⁻¹] | kon (human CD3ε antigen [5]) [M⁻¹ s⁻¹] |
| --- | --- | --- | --- | --- | --- | --- | --- | --- | --- | --- | --- | --- | --- |
| CD3XCD19 bispecific antibody (antibody A) (bispecific antibody, Three-polypeptide bispecific made in CHO3E7 cells; The description speaks of a disulfide bond between CD19 VL and VH, charge substitutions and a knob-in-hole Fc) chain 1: EIVLTQSPATLSVTPGERATLSCSASSSVSYMHWYQKKPGQAPRLLIYDTSKLASGIPARFSGSGSGTDFTLTISSLEPEDFAVYYCFQGSVYPFTFGCGTKLEIKRTVAAEVQLVESGGGLVQPGGSLRLSCAASGFTFNTYAMNWVRKAPGKGLEWVGRIRSKYNNYATYYADSVDKGRFTISRDDSKNSLYLQMNSLKTEDTAVYYCVRHGNFGNSYVSWFAYWGQGTLVTVSS chain 2: EAVVTQEPSLTVSPGGTVTLTCRSSTGAVTTSNYANWVQDKPGQAPRGLIGGTNKRAPWTPARFSGSLLGGKAALTITGAQPEDEAEYYCALWYSNLWVFGGGTKLTVLRTVAAQVQLQESGPGLVKPSQTLSLTCTVSGGSISTSGMGVGWIRDHPGKCLEWIGHIWWDDDKRYNPALKSRVTISVDTSKNQFSLKLSSVTAADTAVYYCARMELWSYYFDYWGQGTTLTVSSASEPKSDKTHTCPPCPAPPVAGGPSVFLFPPKPKDTLMISRTPEVTCVVVDVSQEDPEVKFNWYVDGVEVHNAKTKPREEQFNSTYRVVSVLTVLHQDWLNGKEYKCKVSNKGLPSSIEKTISKAKGQPREPQVYTLPPCRDELTKNQVSLWCLVKGFYPSDIAVEWESNGQPENNYKTTPPVLDSDGSFFLYSKLTVDKSRWQQGNVFSCSVMHEALHNHYTQKSLSLSPGK chain 3: DKTHTCPPCPAPPVAGGPSVFLFPPKPKDTLMISRTPEVTCVVVDVSQEDPEVKFNWYVDGVEVHNAKTKPREEQFNSTYRVVSVLTVLHQDWLNGKEYKCKVSNKGLPSSIEKTISKAKGQPREPQVCTLPPSRDELTKNQVSLSCAVKGFYPSDIAVEWESNGQPENNYKTTPPVLDSDGSFFLVSKLTVDKSRWQQGNVFSCSVMHEALHNRFTQKSLSLSPGK | 31.4 | 0.0153 | 488000 | 1.83 | 0.000669 | 365000 |  |  |  |  |  |  |  |
| CD3XCD19XCD20 tri-specific antibody (antibody #1) (other, Tri-specific antibody of four polypeptide chains) chain 1: EIVLTQSPATLSVTPGERATLSCSASSSVSYMHWYQKKPGQAPRLLIYDTSKLASGIPARFSGSGSGTDFTLTISSLEPEDFAVYYCFQGSVYPFTFGCGTKLEIKRTVAAEVQLVESGGGLVQPGGSLRLSCAASGFTFSTYAMNWVRQAPGKGLEWVGRIRSKYNNYATYYADSVKGRFTISRDDSKNSLYLQMNSLRAEDTAVYYCVRHGNFGNSYVSWFAYWGQGTLVTVSS chain 2: QAVVTQEPSLTVSPGGTVTLTCRSSTGAVTTSNYANWVQQKPGQAPRGLIGGTNKRAPWTPARFSGSLLGGKAALTLSGAQAEDEADYYCALWYSNLWVFGGGTKLTVLRTVAAQVQLQESGPGLVKPSQTLSLTCTVSGGSISTSGMGVGWIRDHPGKCLEWIGHIWWDDDKRYNPALKSRVTISVDTSKNQFSLKLSSVTAADTAVYYCARMELWSYYFDYWGQGTTLTVSSASEPKSSDKTHTCPPCPAPPVAGPSVFLFPPKPKDTLMISRTPEVTCVVVDVSQEDPEVKFNWYVDGVEVHNAKTKPREEQFNSTYRVVSVLTVLHQDWLNGKEYKCKVSNKGLPSSIEKTISKAKGQPREPQVYTLPPSRDELTKNQVSLWCLVKGFYPSDIAVEWESNGQPENNYKTTPPVLDSDGSFFLYSKLTVDKSRWQQGNVFSCSVMHEALHNHYTQKSLSLSP heavy: QVQLVQSGAEVKKPGSSVKVSCKASGYAFSYSWINWVRQAPGQGLEWMGRIFPGDGDTDYNGKFKGRVTITADKSTSTAYMELSSLRSEDTAVYYCARNVFDGYWLVYWGQGTLVTVSSASTKGPSVFPLAPSSKSTSGGTAALGCLVKDYFPEPVTVSWNSGALTSGVHTFPAVLQSSGLYSLSSVVTVPSSSLGTQTYICNVNHKPSNTKVDKKVEPKSCDKTHTCPPCPAPPVAGPSVFLFPPKPKDTLMISRTPEVTCVVVDVSQEDPEVKFNWYVDGVEVHNAKTKPREEQFNSTYRVVSVLTVLHQDWLNGKEYKCKVSNKGLPSSIEKTISKAKGQPREPQVYTLPPSRDELTKNQVSLSCAVKGFYPSDIAVEWESNGQPENNYKTTPPVLDSDGSFFLVSKLTVDKSRWQQGNVFSCSVMHEALHNRFTQKSLSLSP light: DIVMTQTPLSLPVTPGEPASISCRSSKSLLHSNGITYLYWYLQKPGQSPQLLIYQMSNLVSGVPDRFSGSGSGTDFTLKISRVEAEDVGVYYCAQNLELPYTFGGGTKVEIKRTVAAPSVFIFPPSDEQLKSGTASVVCLLNNFYPREAKVQWKVDNALQSGNSQESVTEQDSKDSTYSLSSTLTLSKADYEKHKVYACEVTHQGLSSPVTKSFNRGEC |  |  |  |  |  |  | 0.00122 | 1.32 | 0.000273 | 207000 | 25 | 0.00835 | 334000 |
